Starred links: 1 amine or outer side, 2 acyl side, 3 side chain; linkers in the order of their positions; H or OH if unused. Positions of bridges follow the written chain, without caps; N, C: chain ends. Non-standard residues stand in square brackets, D forms with d. Primed or numbered codes have the meaning given here. *: point of attachment. Af3(3Ta5Sa) = 3-aminophenylalanine, ring amine acylated with 5-sulfamoylthiophene-3-carboxylic acid, NS(=O)(=O)c1cc(C(=O)Nc2cccc(C[C@H](N[*:1])C(=O)[*:2])c2)cs1; Af3(3MSaBz) = 3-aminophenylalanine, ring amine acylated with 3-(sulfamoylmethyl)benzoic acid, NS(=O)(=O)Cc1cccc(C(=O)Nc2cccc(C[C@H](N[*:1])C(=O)[*:2])c2)c1; Af3(4SaBz) = 3-aminophenylalanine, ring amine acylated with 4-sulfamoylbenzoic acid, NS(=O)(=O)c1ccc(C(=O)Nc2cccc(C[C@H](N[*:1])C(=O)[*:2])c2)cc1; Af3(H-pGlu) = 3-aminophenylalanine with L-pyroglutamyl on the ring amine, O=C1CC[C@@H](C(=O)Nc2cccc(C[C@H](N[*:1])C(=O)[*:2])c2)N1; Af3(Im5) = 3-aminophenylalanine with 1H-imidazole-5-carbonyl on the ring amine, O=C(Nc1cccc(C[C@H](N[*:1])C(=O)[*:2])c1)c1cnc[nH]1; Af3(Oa5) = 3-aminophenylalanine with 1,3-oxazole-5-carbonyl on the ring amine, O=C(Nc1cccc(C[C@H](N[*:1])C(=O)[*:2])c1)c1cnco1; Af3(H2N-Succinyl) = 3-aminophenylalanine with succinamoyl on the ring amine, NC(=O)CCC(=O)Nc1cccc(C[C@H](N[*:1])C(=O)[*:2])c1; Aph(Cp) = 4-aminophenylalanine with cyclopentanecarbonyl on the ring amine, O=C(Nc1ccc(C[C@H](N[*:1])C(=O)[*:2])cc1)C1CCCC1; DOTA(In) = O=C1CN2CCN3CCN(CC(=O)*)CCN(CC2)CC(=O)[O][In]([O]1)[O]C(=O)C3; APAc″ = 2-(4-(amino)piperidin-1-yl)acetic acid, NC1CCN(CC(=O)*)CC1; DOTA = O=C(O)CN1CCN(CC(=O)O)CCN(CC(=O)*)CCN(CC(=O)O)CC1; Phe(4-tBu) = CC(C)(C)c1ccc(C[C@H](N)C(=O)O)cc1; Pyridine(2,6-diCH2) = c1cc(C[*:1])nc(C[*:2])c1; mXylylene = c1cc(C[*:1])cc(C[*:2])c1; αMeL = CC(C)C[C@](C)(N)C(=O)O; Ac6c = NC1(C(=O)O)CCCCC1; APAc = not defined here
B1: 3BP-4412 (peptide)
peptide: {DOTA-APAc}-VYCE[dP]D[Af3(3Ta5Sa)]LTWSC-NH2
modifications: linker 3-12 via mXylylene; reading uncertain
B2: 3BP-4406 (peptide)
peptide: {DOTA-APAc}-VYCE[dP]D[Af3(3MSaBz)]LTWSC-NH2
modifications: linker 3-12 via mXylylene; reading uncertain
B3: 3BP-4405 (peptide)
peptide: {DOTA-APAc}-VYCE[dP]D[Af3(4SaBz)]LTWSC-NH2
modifications: linker 3-12 via mXylylene; reading uncertain
B4: 3BP-4238 (peptide)
peptide: {DOTA-APAc″}-VYCE[dP]D[Af3(H2N-Succinyl)]LTWSC-NH2
modifications: linker 3-12 via mXylylene
B5: 3BP-4240 (peptide)
peptide: {DOTA-APAc″}-VYCE[dP]D[Af3(Im5)]LTWSC-NH2
modifications: linker 3-12 via mXylylene
B6: 3BP-4140 (peptide)
peptide: {DOTA-APAc″}-VYCE[dP]DWLTWSC-NH2
modifications: linker 3-12 via Pyridine(2,6-diCH2)
B7: 3BP-4241 (peptide)
peptide: {DOTA-APAc″}-VYCE[dP]D[Af3(H-pGlu)]LTWSC-NH2
modifications: linker 3-12 via mXylylene
B8: 3BP-4106 (peptide)
peptide: {DOTA-APAc}-VYCE[dP]DW[αMeL]TWSC-NH2
modifications: linker 3-12 via mXylylene; reading uncertain
B9: 3BP-4239 (peptide)
peptide: {DOTA-APAc″}-VYCE[dP]D[Af3(Oa5)]LTWSC-NH2
modifications: linker 3-12 via mXylylene
B10: 3BP-4160 (peptide)
peptide: {DOTA-APAc″}-VYCE[dP]D[Phe(4-tBu)]LTWSC-NH2
modifications: linker 3-12 via mXylylene
B11: 3BP-4053 (peptide)
peptide: {DOTA(In)}-YCE[dP]KWLEWSC-NH2
modifications: linker 2-11 via mXylylene; lactam 5-8; also: indium complexed by DOTA
B12: 3BP-3961 (peptide)
peptide: Ac-VYCE[dP]KW[Ac6c]EWSC-NH2
modifications: linker 3-12 via mXylylene; lactam 6-9
SMILES: CC(=O)N[C@H](C(=O)N[C@@H](Cc1ccc(O)cc1)C(=O)N[C@H]1CSCc2cccc(c2)CSC[C@@H](C(N)=O)NC(=O)[C@H](CO)NC(=O)[C@H](Cc2c[nH]c3ccccc23)NC(=O)[C@@H]2CCC(=O)NCCCC[C@H](NC(=O)[C@H]3CCCN3C(=O)[C@H](CCC(=O)O)NC1=O)C(=O)N[C@@H](Cc1c[nH]c3ccccc13)C(=O)NC1(CCCCC1)C(=O)N2)C(C)C
B13: 3BP-4173 (peptide)
peptide: {DOTA-APAc″}-VYCE[dP]D[Aph(Cp)]LTWSC-NH2
modifications: linker 3-12 via mXylylene

target: T1, Fc-fusion protein of human carbonic anhydrase IX (human, UniProt Q16790 38-414); experiment: SPR, captured hCAIX-Fc; pKD category A: >8.0

Row | Binder | pKD [pkd]
1 | B1 | > 8
2 | B2 | > 8
3 | B3 | > 8

target: T1, Fc-fusion protein of human carbonic …; experiment: SPR, captured hCAIX-Fc; t1/2 category A: >15.0 min
Description: Stock solutions of test compounds were prepared by dissolving each compound in DMSO. DMSO stock solution were diluted 1:1000 in Running Buffer without DMSO. […] SPR binding analyses were performed in Single Cycle Kinetic (SCK) mode at 25° C.
For each test compound, SPR raw data in the form of resonance units (RU) were plotted as sensorgrams using the Biacore™ T200 control software. The signal from the blank sensorgram was subtracted from that of the test compound sensorgram (blank corrected). The blank corrected sensorgram was corrected for baseline drift by subtracting the sensorgram of a SCK run without the test compound (running buffer only). […] Raw data and fit results were imported as text files in IDBS. The pKD value (negative decadic logarithm of dissociation constant) was calculated in the IDBS excel template.

Row | Binder | t1/2 (half-life of the complex, SPR) [min]
4 | B1 | > 15
5 | B2 | > 15
6 | B3 | > 15

target: human carbonic anhydrase IX (CAIX) (human, UniProt Q16790 38-459); experiment: FACS competition, HT-29 cells, tracer 3BP-4149; pIC50 category A: >8.0
Description: (§1) CAIX-expressing human HT-29 colorectal cancer cells (DSMZ, RRID: CVCL_0320) were cultured in McCoys's 5A modified medium (Biochrom, #F1015) including 10% fetal calf serum (FCS), 2 mM L-glutamine, 100 U/ml penicillin and 100 μg/mL streptomycin. Cells were detached with Accutase (Biolegend, #423201) and washed in FACS buffer (PBS including 1% FCS). Cells were diluted in FACS buffer to a final concentration of 500.000 cells per ml. 200 μL of the cell suspension were transferred to a u-shaped non-binding 96-well plate (Greiner) and cells were washed in ice-cold FACS buffer.
(§2) When biotinylated compounds were used an additional incubation step with 1 μg/mL APC-Streptavidin (Miltenyi; #130-106-791) in 50 μL FACS buffer for 30 minutes on ice was performed.
(§3) Cells were washed twice with ice-cold FACS buffer and analyzed in an Attune NxT flow cytometer (Thermo Fisher). Median fluorescence intensities (MFI) of the APC/Cy5-channel were calculated by Attune NxT software.

Row | Binder | pIC50 [pic50]
7 | B1 | > 8
8 | B2 | > 8
9 | B3 | > 8

target: human carbonic anhydrase 9 (CAIX) (human, UniProt Q16790 38-459); experiment: FACS competition on HT-29 cells, competitor tracer 3BP-2776; category B = pIC50 7.1-8.0
Description: as §1, §2, §3

Row | Binder | pIC50 [pic50]
10 | B4 | 7.1 to 8
11 | B5 | 7.1 to 8
12 | B6 | 7.1 to 8
13 | B7 | 7.1 to 8
14 | B8 | 7.1 to 8
15 | B9 | 7.1 to 8
16 | B10 | 7.1 to 8
17 | B11 | 7.1 to 8
18 | B12 | 7.1 to 8
19 | B13 | 7.1 to 8

From patent publication US20250339569A1 (3B PHARMACEUTICALS, published 2025)
